Source: PMC10775985, “Malaria parasite centrins can assemble by Ca^2+-inducible condensation” (PLOS Pathogens, 2023)

Columns and labels:
[1] = molecular target: PfCen1-6His (P. falciparum centrin 1, 6His-tagged) (P. falciparum); assay: turbidity (light scattering); PfCen1-6His and PfCen3-6His at individually subcritical concentrations, alone with BSA to a total protein concentration of >20 μM or as a mixture; calcium, then EDTA; 50 mM BisTris pH 7.1, 37°C
[2] = molecular target: PfCen1-6His (P. falciparum centrin 1, 6His-tagged) (P. falciparum); assay: turbidity (light scattering); range of PfCen1-6His concentrations to find the saturation concentration; CaCl2 to 2 mM; 50 mM BisTris pH 7.1, 37°C, no salt or PEG
[3] = molecular target: PfCen3-6His (P. falciparum centrin 3, 6His-tagged) (P. falciparum); assay: turbidity (light scattering); PfCen1-6His and PfCen3-6His at individually subcritical concentrations, alone with BSA to a total protein concentration of >20 μM or as a mixture; calcium, then EDTA; 50 mM BisTris pH 7.1, 37°C
[4] = molecular target: the molecule itself; assay: light microscopy of droplets in purified protein solutions; self-assembly into droplets; concentrated recombinant centrin (100-200 μM), 2 mM CaCl2 added, then 10 mM EDTA; 50 mM BisTris pH 7.1, 37°C

## PfCen1-6His (P. falciparum centrin 1, 6His-tagged) (natural protein)
[1]
  csat (saturation concentration): 10 µM
[2]
  csat (critical saturation concentration): 10 to 15 µM

## PfCen3-6His (P. falciparum centrin 3, 6His-tagged) (natural protein)
[3]
  csat (saturation concentration): 10 µM

B1: ScCdc31-6His (Saccharomyces cerevisiae centrin Cdc31) (natural protein, UniProt P06704 1-161, looked up)
chain: MSKNRSSLQSGPLNSELLEEQKQEIYEAFSLFDMNNDGFLDYHELKVAMKALGFELPKREILDLIDEYDSEGRHLMKYDDFYIVMGEKILKRDPLDEIKRAFQLFDDDHTGKISIKNLRRVAKELGETLTDEELRAMIEEFDLDGDGEINENEFIAICTDS
notes: Saccharomyces cerevisiae centrin Cdc31, 161 aa, 19 kDa; source: recombinant, pET-28 construct from a synthetic codon optimized gene
[4]
  binding result: binds

B2: HsCen2-6His (human centrin 2, 6His-tagged) (natural protein, UniProt P41208 1-172, looked up)
chain: MASNFKKANMASSSQRKRMSPKPELTEEQKQEIREAFDLFDADGTGTIDVKELKVAMRALGFEPKKEEIKKMISEIDKEGTGKMNFGDFLTVMTQKMSEKDTKEEILKAFKLFDDDETGKISFKNLKRVAKELGENLTDEELQEMIDEADRDGDGEVSEQEFLRIMKKTSLY
notes: human centrin 2 (HsCen2); mass spectrometry confirmed full length except for cleavage of methionine 1; source: E. coli BL21-CodonPlus (DE3), pET-28, purified (Ni-NTA); not shown: 6His, C-terminal, kept
[4]
  binding result: binds
